Results from the Human Domainome abundance scans (Beltran et al. 2025).
± gives the uncertainty stated by the source.

B1: Far upstream element-binding protein 2, residues 142 to 214; numbered along this chain, Q92945 (parent)
chain: RTSMTEEYRVPDGMVGLIIGRGGEQINKIQQDSGCKVQISPDSGGLPERSVSLTGAPESVQKAKMMLDDIVSR

Variants of: B1
Assay: abundance fitness (aPCA) (normalised: wild type 0, dead -1); higher = more abundant; growth selection in yeast, the domain comes from the species named
Settings: Homo sapiens

| Variant | abundance fitness |
| --- | --- |
| RTSMTEEYEVPDGMVGLIIGRGGEQINKIQQDSGCKVQISPDSGGLPERSVSLTGAPESVQKAKMMLDDIVSR [R9E] | -0.094 ± 0.045 |
| RTSMTEEYGVPDGMVGLIIGRGGEQINKIQQDSGCKVQISPDSGGLPERSVSLTGAPESVQKAKMMLDDIVSR [R9G] | -0.235 ± 0.035 |
| RTSMTEEYTVPDGMVGLIIGRGGEQINKIQQDSGCKVQISPDSGGLPERSVSLTGAPESVQKAKMMLDDIVSR [R9T] | 0.053 ± 0.05 |
| RTSMTEEYMVPDGMVGLIIGRGGEQINKIQQDSGCKVQISPDSGGLPERSVSLTGAPESVQKAKMMLDDIVSR [R9M] | 0.064 ± 0.058 |
| RTSMTEEYNVPDGMVGLIIGRGGEQINKIQQDSGCKVQISPDSGGLPERSVSLTGAPESVQKAKMMLDDIVSR [R9N] | 0.078 ± 0.076 |
| RTSMTEEYIVPDGMVGLIIGRGGEQINKIQQDSGCKVQISPDSGGLPERSVSLTGAPESVQKAKMMLDDIVSR [R9I] | 0.055 ± 0.076 |
| RTSMTEEYLVPDGMVGLIIGRGGEQINKIQQDSGCKVQISPDSGGLPERSVSLTGAPESVQKAKMMLDDIVSR [R9L] | 0.076 ± 0.042 |
| RTSMTEEYKVPDGMVGLIIGRGGEQINKIQQDSGCKVQISPDSGGLPERSVSLTGAPESVQKAKMMLDDIVSR [R9K] | 0.119 ± 0.057 |
| RTSMTEEYSVPDGMVGLIIGRGGEQINKIQQDSGCKVQISPDSGGLPERSVSLTGAPESVQKAKMMLDDIVSR [R9S] | -0.024 ± 0.042 |
| RTSMTEEYFVPDGMVGLIIGRGGEQINKIQQDSGCKVQISPDSGGLPERSVSLTGAPESVQKAKMMLDDIVSR [R9F] | 0.068 ± 0.068 |
| RTSMTEEYQVPDGMVGLIIGRGGEQINKIQQDSGCKVQISPDSGGLPERSVSLTGAPESVQKAKMMLDDIVSR [R9Q] | 0.137 ± 0.05 |
| RTSMTEEYPVPDGMVGLIIGRGGEQINKIQQDSGCKVQISPDSGGLPERSVSLTGAPESVQKAKMMLDDIVSR [R9P] | 0.041 ± 0.05 |
| RTSMTEEYYVPDGMVGLIIGRGGEQINKIQQDSGCKVQISPDSGGLPERSVSLTGAPESVQKAKMMLDDIVSR [R9Y] | 0.025 ± 0.066 |
| RTSMTEEYWVPDGMVGLIIGRGGEQINKIQQDSGCKVQISPDSGGLPERSVSLTGAPESVQKAKMMLDDIVSR [R9W] | -0.033 ± 0.044 |
| RTSMTEEYDVPDGMVGLIIGRGGEQINKIQQDSGCKVQISPDSGGLPERSVSLTGAPESVQKAKMMLDDIVSR [R9D] | -0.155 ± 0.059 |
| RTSMTEEYVVPDGMVGLIIGRGGEQINKIQQDSGCKVQISPDSGGLPERSVSLTGAPESVQKAKMMLDDIVSR [R9V] | -0.046 ± 0.04 |
| RTSMTEEYAVPDGMVGLIIGRGGEQINKIQQDSGCKVQISPDSGGLPERSVSLTGAPESVQKAKMMLDDIVSR [R9A] | -0.145 ± 0.04 |
| RTSMTEEYHVPDGMVGLIIGRGGEQINKIQQDSGCKVQISPDSGGLPERSVSLTGAPESVQKAKMMLDDIVSR [R9H] | 0.135 ± 0.069 |
| RTSMTEEYCVPDGMVGLIIGRGGEQINKIQQDSGCKVQISPDSGGLPERSVSLTGAPESVQKAKMMLDDIVSR [R9C] | -0.132 ± 0.061 |

| Variant | abundance fitness |
| --- | --- |
| RTSMTEEPRVPDGMVGLIIGRGGEQINKIQQDSGCKVQISPDSGGLPERSVSLTGAPESVQKAKMMLDDIVSR [Y8P] | -0.342 ± 0.056 |
| RTSMTEEQRVPDGMVGLIIGRGGEQINKIQQDSGCKVQISPDSGGLPERSVSLTGAPESVQKAKMMLDDIVSR [Y8Q] | -0.51 ± 0.058 |
| RTSMTEEWRVPDGMVGLIIGRGGEQINKIQQDSGCKVQISPDSGGLPERSVSLTGAPESVQKAKMMLDDIVSR [Y8W] | -0.007 ± 0.041 |
| RTSMTEEDRVPDGMVGLIIGRGGEQINKIQQDSGCKVQISPDSGGLPERSVSLTGAPESVQKAKMMLDDIVSR [Y8D] | -0.477 ± 0.057 |
| RTSMTEEVRVPDGMVGLIIGRGGEQINKIQQDSGCKVQISPDSGGLPERSVSLTGAPESVQKAKMMLDDIVSR [Y8V] | -0.057 ± 0.038 |
| RTSMTEERRVPDGMVGLIIGRGGEQINKIQQDSGCKVQISPDSGGLPERSVSLTGAPESVQKAKMMLDDIVSR [Y8R] | -0.455 ± 0.037 |
| RTSMTEEKRVPDGMVGLIIGRGGEQINKIQQDSGCKVQISPDSGGLPERSVSLTGAPESVQKAKMMLDDIVSR [Y8K] | -0.417 ± 0.055 |
| RTSMTEECRVPDGMVGLIIGRGGEQINKIQQDSGCKVQISPDSGGLPERSVSLTGAPESVQKAKMMLDDIVSR [Y8C] | -0.609 ± 0.063 |
| RTSMTEEHRVPDGMVGLIIGRGGEQINKIQQDSGCKVQISPDSGGLPERSVSLTGAPESVQKAKMMLDDIVSR [Y8H] | -0.12 ± 0.067 |
| RTSMTEEERVPDGMVGLIIGRGGEQINKIQQDSGCKVQISPDSGGLPERSVSLTGAPESVQKAKMMLDDIVSR [Y8E] | -0.496 ± 0.045 |
| RTSMTEESRVPDGMVGLIIGRGGEQINKIQQDSGCKVQISPDSGGLPERSVSLTGAPESVQKAKMMLDDIVSR [Y8S] | -0.472 ± 0.046 |
| RTSMTEELRVPDGMVGLIIGRGGEQINKIQQDSGCKVQISPDSGGLPERSVSLTGAPESVQKAKMMLDDIVSR [Y8L] | -0.089 ± 0.039 |
| RTSMTEENRVPDGMVGLIIGRGGEQINKIQQDSGCKVQISPDSGGLPERSVSLTGAPESVQKAKMMLDDIVSR [Y8N] | -0.536 ± 0.082 |
| RTSMTEEIRVPDGMVGLIIGRGGEQINKIQQDSGCKVQISPDSGGLPERSVSLTGAPESVQKAKMMLDDIVSR [Y8I] | -0.061 ± 0.062 |
| RTSMTEEFRVPDGMVGLIIGRGGEQINKIQQDSGCKVQISPDSGGLPERSVSLTGAPESVQKAKMMLDDIVSR [Y8F] | -0.116 ± 0.073 |
| RTSMTEETRVPDGMVGLIIGRGGEQINKIQQDSGCKVQISPDSGGLPERSVSLTGAPESVQKAKMMLDDIVSR [Y8T] | -0.214 ± 0.048 |
| RTSMTEEGRVPDGMVGLIIGRGGEQINKIQQDSGCKVQISPDSGGLPERSVSLTGAPESVQKAKMMLDDIVSR [Y8G] | -0.576 ± 0.036 |
| RTSMTEWYRVPDGMVGLIIGRGGEQINKIQQDSGCKVQISPDSGGLPERSVSLTGAPESVQKAKMMLDDIVSR [E7W] | -0.1 ± 0.043 |
